Two molecules from patent US20100298539A1 (ALLIGATOR BIOSCIENCE, published 2010) can be followed below.

For assay [1], the target named is T1, Chemotaxis Inhibitory Protein of Staphylococcus aureus (CHIPS), wildtype, amino acids 1-121 (Staphylococcus aureus, UniProt A6QIG7 29-149). Kind of assay: competition: CHIPS given iv (0.1 mg/kg) against the binding of FITC labelled anti-CD88 mAb to C5aR on gated blood neutrophils, flow cytometry [B) (cont.]. (In general: Flow cytometry measures light scatter and fluorescence of single cells or particles in a stream.)

The target of assay [2] is T1, Chemotaxis Inhibitory Protein of …. Nature of the assay: competition: CHIPS given iv (0.1 mg/kg) against the binding of FITC-fMLP to FPR on gated blood neutrophils, flow cytometry [A) (cont.].

B1: human C5a receptor (C5aR) (receptor)
chain: MDSFNYTTPDYGHYDDKDTLDLNTPVDKTSNTLRVPDILALVIFAVVFLVGVLGNALVVWVTAFEAKRTINAIWFLNLAVADFLSCLALPILFTSIVQHHHWPFGGAACSILPSLILLNMYASILLLATISADRFLLVFKPIWCQNFRGAGLAWIACAVAWGLALLLTIPSFLYRVVREEYFPPKVLCGVDYSHDKRRERAVAIVRLVLGFLWPLLTLTICYTFILLRTWSRRATRSTKTLKVVVAVVASFFIFWLPYQVTGIMMSFLEPSSPTFLLLKKLDSLCVSFAYINCCINPIIYVVAGQGFQGRLRKSLPSLLRNVLTEESVVRESKSFTRSTVDTMAQKTQAV
notes: whole, on cells; also called CD88; U937/C5aR cells
On to B1, for which the binding result in assay [1] is on record as “binds”.

B2: human formylated peptide receptor (FPR) (receptor)
chain: METNSSLPTNISGGTPAVSAGYLFLDIITYLVFAVTFVLGVLGNGLVIWVAGFRMTHTVTTISYLNLAVADFCFTSTLPFFMVRKAMGGHWPFGWFLCKFVFTIVDINLFGSVFLIALIALDRCVCVLHPVWTQNHRTVSLAKKVIIGPWVMALLLTLPVIIRVTTVPGKTGTVACTFNFSPWTNDPKERINVAVAMLTVRGIIRFIIGFSAPMSIVAVSYGLIATKIHKQGLIKSSRPLRVLSFVAAAFFLCWSPYQVVALIATVRIRELLQGMYKEIGIAVDVTSALAFFNSCLNPMLYVFMGQDFRERLIHALPASLERALTEDSTQTSDTATNSTLPSAEVELQAK
notes: whole, on cells; also called formyl-peptide-receptor
Consider B2, for which the binding result in assay [2] is listed as “binds”.
